The results in this text go back to patent US20230322935A1 (published 2023).

Experiment [1] concerns the target T1, Human CD93 on the cell surface (human CD93 expressing CHO cells; HUVEC, U937 and KG1a cells) (human, UniProt Q9NPY3 22-652).
T1 chain: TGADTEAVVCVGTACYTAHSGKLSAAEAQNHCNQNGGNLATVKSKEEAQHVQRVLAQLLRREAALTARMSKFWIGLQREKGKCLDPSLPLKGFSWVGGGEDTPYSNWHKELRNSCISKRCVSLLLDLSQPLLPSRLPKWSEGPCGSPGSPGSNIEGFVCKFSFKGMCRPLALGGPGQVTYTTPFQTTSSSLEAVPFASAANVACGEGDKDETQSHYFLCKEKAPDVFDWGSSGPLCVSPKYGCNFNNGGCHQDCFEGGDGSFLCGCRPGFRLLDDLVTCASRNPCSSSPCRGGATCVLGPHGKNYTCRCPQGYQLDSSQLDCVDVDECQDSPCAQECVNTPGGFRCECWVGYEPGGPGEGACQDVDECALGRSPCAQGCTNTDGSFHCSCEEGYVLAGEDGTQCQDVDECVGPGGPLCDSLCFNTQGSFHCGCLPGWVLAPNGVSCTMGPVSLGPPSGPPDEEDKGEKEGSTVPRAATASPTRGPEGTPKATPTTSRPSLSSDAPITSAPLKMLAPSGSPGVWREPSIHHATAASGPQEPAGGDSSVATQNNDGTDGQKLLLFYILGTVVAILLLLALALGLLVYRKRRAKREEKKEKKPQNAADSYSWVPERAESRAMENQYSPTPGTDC
The experiment can be described thus: FACS blocking of hIGFBP7-His binding; HUVEC cells.

The target of experiment [2] is T1, Human CD93 on the cell surface (human …). The experiment can be described thus: FACS blocking of MMRN2 binding; FIG. 45.

B1: h7F3 (humanized 7F3, VH3+VL3) (antibody, V domains shown)
VH: QVQLVQSGAEVKKPGASVKVSCKASGYTFTDYEMHWVRQAPGQGLEWMGGIDPETGDTAYNQNFKGRVTMTTDTSTSTAYMELRSLTSDDTAVYYCTNYGNLYYYAMDYWGQGTSVTVSS
VL: EIVLTQSPSSLSASVGDRVTITCRASSSVSSSYLHWYQQKPGKAPKLLIYSTSNLAFGVPSRFSGSGSGTSYTFTISSLQPEDIATYYCQQYSGYPLTFGSGTKLEIK
The molecule B1 registered an IC50 in experiment [1] of 1 nM.

B2: h16E4 (humanized 16E4, VH4+VL6) (antibody, V domains shown)
VH: QVQLVQSGAEVKKPGASVKVSCKASGYTFTSYWMHWVRQAPGQGLEWMGEIDPSASYTYYNQKFKGRVTMTRDKSSSTVYMELSSLTSEDSAVYYCARSVYYGNKYFDVWGAGTTVTVSS
VL: DIQMTQSPSTLSASVGDRVTITCKASQSVDYAGDSYMNWYQQKPGKAPKLLIYAASNLESGVPSRFSGSGSGTEFTLTISSLQPDDFATYYCQQTNEDPRTFGGGTKLEIK
On to B2, for which, in experiment [2], the IC50 came to 225 nM.

In general, IC50 refers to the concentration needed to halve the response being measured. A high value points to weaker potency in that assay.
